Reference: US20220281959A1 (DIACCURATE, published 2022)
Ends that are not written are not given here.

T1: BSA-PEP3 peptide (HIV-1 MN strain, also: conjugated to BSA)
T1 construct: The KLH immunogen carried an added N-terminal Cys
T1 peptide: PWNASWSNKSLDDIW


Experiments:
[1] = biological target: T2, HIV-1 MN gp41 recombinant protein produced in E. coli (565-771Delta642-725) (HIV-1 MN); assay: ELISA, hybridoma supernatant 1/10, coated MN gp41
T2 construct: range 565-771; Residues 642-725 are deleted; also called MN gp41 (produced in E. coli); MN gp41 protein

[2] = biological target: T2, HIV-1 MN gp41 recombinant protein …; assay: ELISA, hybridoma supernatant pure, coated MN gp41
[3] = biological target: T1, BSA-PEP3 peptide; assay: ELISA, hybridoma supernatant 1/10, coated BSA-PEP3
[4] = biological target: T1, BSA-PEP3 peptide; assay: ELISA, hybridoma supernatant pure, coated BSA-PEP3
[5] = biological target: T3, HXB2 gp41 recombinant protein (a.a. 534-681) (HIV-1 HXB2, UniProt P04578 534-681); assay: sandwich ELISA, mAb capture, gp41 titrated, biotinylated goat pAb detection
T3 construct: Bought; tags not described; also called ABIN1605865

[6] = biological target: T3, HXB2 gp41 recombinant protein (a.a. …); assay: sandwich ELISA, 72D7 capture 10 µg/ml, HXB2 gp41 titrated, biotinylated 4G1 detection 20 µg/ml

| Binder | ELISA screening signal [1] | ELISA screening signal [2] | ELISA screening signal [3] | ELISA screening signal [4] | minimal amount of gp41 detected [5] [ng/mL] | EC50 [6] [µg/mL] |
| --- | --- | --- | --- | --- | --- | --- |
| anti-PEP3 mAb 5E12 (antibody, V domains shown) VH: QIQLVQSGPELKKPGETVKISCKASGYTFRTYGMSWVKQAPGKGLKWMGWINTYSGVPRYVDDFKGRFALSLETSASTAYLQINNLKSEDTATYFCVREGYSYYGSSFHTMDYWGQGTSVTVSS VL: DIQMTQTPLTLSVTIGHPASISCKSSQSLLHTNGKIYLNWLLQRPGQSPKRLIYLVSKLDSGVPDRFSGSGSGTDFTLKISRVEAEDLGVYYCLQSTHFPQTFGGGTKLEIK | 2.71 | 2.61 | 3.21 | 3 |  |  |
| anti-PEP3 mAb 3A2 (antibody, V domains shown) VH: QVQLQQPGAELVKPGASVKLSCKASGYIFTNYWMHWVRQRPGQGPEWIGMIHPNRGDLHYSEKFNNKATLTVDKSSSTAYMQLNSLASEDSAVYFCARAGLGVFDYWGQGSTLTVSS VL: DVVMTQTPLSLPVSLGDQVSMSCRSSQSIEHSNRNTYLEWYLHKPGQAPQLLIYGVSNRFTGVPDRFSGSGSGTDFTLKISRVEAEDMGVYHCLQGTHVPFTFGSGTKLEIK | 2.75 | 2.63 | 3.06 | 2.93 | ~1 |  |
| anti-PEP3 mAb 15B4 (antibody, V domains shown) VH: QVQLQQSGPELVRPGTSVKISCKAPGYSFTSHWMQWLRQRPGQGLEWIGEIFPGSGKTYYNEKFKDKATLTADTSSTTVYMQFSSLTSEDSAVYFCASDYDGGDYWGQGTTLTVSS VL: not shown | 1.45 | 1.81 | 2.59 | 2.73 | > 10 |  |
| anti-PEP3 mAb 9B12 (antibody, V domains shown) VH: QVQLQQSGPELVKPGASVKISCKASGYGFSDSWMNWVKQRPGKGLDWIGRIYPGDGDTDYNGKFKDKATLTADKSSTTAYMQLSSLTSEDSAVYFCAYLGHWGQGTLVTVSA VL: not shown | 0.047 | 0.054 | 2.78 | 2.79 |  |  |
| anti-PEP3 gp41 mAb 4G1 (antibody, V domains shown, Also used biotinylated (4G1-biot) as detection antibody; also called 4G1 anti-PEP3 mAb; 4G1 mAb) VL: DVVMTQTPLSLCVSLGDQASISCRTSQSIVHSNRYTYLEWYLQKPGQPLKLLIYGIANRFSGVPDRFSGSGSGTDFTLKISRVEAEDMGVYYCLQGTHVPFTFGSGTKLEIK V domain: QVQLQQPGAELVKPGASVKLSCKASGYIFRNYWMHWVKQRPGQGLEWIGMIHPNSDITHYNEKFKNRATLTVDKSSSTAYMQLNSLTSEDSAVYYCARGGLGVFDYWGQGTALRVSS |  |  |  |  | ~1 | 0.34 |
| anti-PEP3 mAb 8D5 (antibody, V domains shown) VH: QVQLQQPGAELIEPGTSVKLSCKASGYTFTTYWMHWVKQRPGQGLEWIGMIHPNSGDTFYNENFKNKATLTVDISSSTVYMELSSLTSEDSAVYSCVKAGTGALDYWGQGTTLTVSS VL: DVVMTQTPLSLPVSLGDQASISCRSSQSIVHSNRYTYLEWYLQRPGQSLKLLIYGVSNRFSGVPDRFSGSGSGTDFILKISRVEAEDMGVYYCFQGTHVPFTFGSGTKLEIK | 2.55 | 2.58 | 2.69 | 2.51 | ~1 |  |
